Non-standard residues stand in square brackets, D forms with d. Residues, ends and D or L forms follow the SMILES beside them. PKcap1 = N-terminal cap C18 diacid-γGlu-mPEG2; PKcap2 = N-terminal cap Aryl(4-I)-Gly-mPEG2; Bip = N[C@@H](Cc1ccc(-c2ccccc2)cc1)C(=O)O; Phe(4-Br) = N[C@@H](Cc1ccc(Br)cc1)C(=O)O; Phe(4-Cl) = N[C@@H](Cc1ccc(Cl)cc1)C(=O)O; Phe(4-I) = N[C@@H](Cc1ccc(I)cc1)C(=O)O; Nle = CCCC[C@H](N)C(=O)O

B1: CTX-1168 (peptide)
peptide: Ac-[Nle][dA]H[Bip]R[dW]DRFG-NH2
SMILES: CCCC[C@H](NC(C)=O)C(=O)N[C@H](C)C(=O)N[C@@H](Cc1c[nH]cn1)C(=O)N[C@@H](Cc1ccc(-c2ccccc2)cc1)C(=O)N[C@@H](CCCNC(=N)N)C(=O)N[C@H](Cc1c[nH]c2ccccc12)C(=O)N[C@@H](CC(=O)O)C(=O)N[C@@H](CCCNC(=N)N)C(=O)N[C@@H](Cc1ccccc1)C(=O)NCC(N)=O
B2: CTX-1122 (peptide)
peptide: Ac-[Nle][dA]HFR[dW]DRFG-OH
SMILES: CCCC[C@H](NC(C)=O)C(=O)N[C@H](C)C(=O)N[C@@H](Cc1c[nH]cn1)C(=O)N[C@@H](Cc1ccccc1)C(=O)N[C@@H](CCCNC(=N)N)C(=O)N[C@H](Cc1c[nH]c2ccccc12)C(=O)N[C@@H](CC(=O)O)C(=O)N[C@@H](CCCNC(=N)N)C(=O)N[C@@H](Cc1ccccc1)C(=O)NCC(=O)O
B3: CTX-1171 (peptide)
peptide: H-[dY]V[Nle][dA]H[Phe(4-I)]R[dW]D-NH2
SMILES: CCCC[C@H](NC(=O)[C@@H](NC(=O)[C@H](N)Cc1ccc(O)cc1)C(C)C)C(=O)N[C@H](C)C(=O)N[C@@H](Cc1c[nH]cn1)C(=O)N[C@@H](Cc1ccc(I)cc1)C(=O)N[C@@H](CCCNC(=N)N)C(=O)N[C@H](Cc1c[nH]c2ccccc12)C(=O)N[C@@H](CC(=O)O)C(N)=O
B4: CTX-1166 (peptide)
peptide: Ac-[Nle][dA]H[Phe(4-Cl)]R[dW]DRFG-OH
SMILES: CCCC[C@H](NC(C)=O)C(=O)N[C@H](C)C(=O)N[C@@H](Cc1c[nH]cn1)C(=O)N[C@@H](Cc1ccc(Cl)cc1)C(=O)N[C@@H](CCCNC(=N)N)C(=O)N[C@H](Cc1c[nH]c2ccccc12)C(=O)N[C@@H](CC(=O)O)C(=O)N[C@@H](CCCNC(=N)N)C(=O)N[C@@H](Cc1ccccc1)C(=O)NCC(=O)O
B5: CTX-1165 (peptide)
peptide: Ac-[Nle][dA]H[Phe(4-Br)]R[dW]DRFG-OH
SMILES: CCCC[C@H](NC(C)=O)C(=O)N[C@H](C)C(=O)N[C@@H](Cc1c[nH]cn1)C(=O)N[C@@H](Cc1ccc(Br)cc1)C(=O)N[C@@H](CCCNC(=N)N)C(=O)N[C@H](Cc1c[nH]c2ccccc12)C(=O)N[C@@H](CC(=O)O)C(=O)N[C@@H](CCCNC(=N)N)C(=O)N[C@@H](Cc1ccccc1)C(=O)NCC(=O)O

Chain of human MC4R (P32245 whole entry): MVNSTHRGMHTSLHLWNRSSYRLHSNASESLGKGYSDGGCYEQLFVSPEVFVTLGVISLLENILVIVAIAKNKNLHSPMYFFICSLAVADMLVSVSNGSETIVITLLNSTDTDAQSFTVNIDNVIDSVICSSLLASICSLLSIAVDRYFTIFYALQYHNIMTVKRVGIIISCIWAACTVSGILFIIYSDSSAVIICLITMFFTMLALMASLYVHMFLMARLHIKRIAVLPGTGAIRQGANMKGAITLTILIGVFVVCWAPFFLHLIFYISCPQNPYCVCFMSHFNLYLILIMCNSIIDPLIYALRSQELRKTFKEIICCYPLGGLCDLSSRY

In one assay the target is human MC3R (human, UniProt P41968 1-323). In words: cell-based or functional assay.
Chain of human MC3R (P41968 whole entry): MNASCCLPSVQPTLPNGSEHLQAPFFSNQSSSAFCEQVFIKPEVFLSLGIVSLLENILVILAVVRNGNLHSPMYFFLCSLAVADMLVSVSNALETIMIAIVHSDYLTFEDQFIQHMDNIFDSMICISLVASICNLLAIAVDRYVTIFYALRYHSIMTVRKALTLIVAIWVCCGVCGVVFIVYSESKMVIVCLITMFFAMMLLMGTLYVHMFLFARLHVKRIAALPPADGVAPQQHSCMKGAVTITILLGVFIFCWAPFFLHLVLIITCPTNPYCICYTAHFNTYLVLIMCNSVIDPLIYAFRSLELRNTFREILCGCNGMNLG
Conditions: not given
PKcap2-G[dY]V[Nle][dA]HFR[dW]D[dR]FG-OH [CTX-1156]: the “MC3R cAMP (EC50)” value is 8.6 nM and the “MC3R selectivity (relative to MC4R)” value was determined as 86.

Take PKcap1-G[dY]V[Nle][dA]HFR[dW]D[dR]FG-OH [CTX-1155]: the “MC3R cAMP (EC50)” value amounted to 3130 nM and the “MC3R selectivity (relative to MC4R)” value is 415.

Regarding PKcap1-GV[Nle][dA]HFR[dW]DRFG-OH [CTX-1149 (PKcap1, SEQ ID NO 40)], the “MC3R cAMP (EC50)” value stood at 313 nM and the “MC3R selectivity (relative to MC4R)” value was found to be 215.

On to PKcap1-G[dY]V[Nle][dA]HFR[dW]DRFG-OH [CTX-1151], for which the “MC3R cAMP (EC50)” value amounted to 299 nM and the “MC3R selectivity (relative to MC4R)” value amounted to 126.

With B1, the “MC3R cAMP (EC50)” value was determined as 28.6 nM and the “MC3R selectivity (relative to MC4R)” value was 485.

On to B2, for which the “MC3R cAMP (EC50)” value amounted to 1.2 nM and the “MC3R selectivity (relative to MC4R)” value is 7700.

Turning to PKcap1-G[Nle][dA]HFR[dW]DR[dF]G-OH [CTX-1153], the “MC3R cAMP (EC50)” value was 5120 nM and the “MC3R selectivity (relative to MC4R)” value came out at 0.13.

Consider B3, for which the “MC3R cAMP (EC50)” value came out at 54 nM and the “MC3R selectivity (relative to MC4R)” value amounted to 234.

Turning to B4, the “MC3R cAMP (EC50)” value was determined as 1.6 nM and the “MC3R selectivity (relative to MC4R)” value amounted to 3100.

For the molecule PKcap2-G[Nle][dA]HFR[dW]DRFG-OH [CTX-1148], the “MC3R cAMP (EC50)” value was found to be 1.5 nM and the “MC3R selectivity (relative to MC4R)” value came out at 1200.

PKcap2-G[Nle][dA]HFR[dW]DR[dF]G-OH [CTX-1154]: the “MC3R cAMP (EC50)” value was 5.8 nM and the “MC3R selectivity (relative to MC4R)” value is 1070.

Turning to PKcap2-GV[Nle][dA]HFR[dW]DRFG-OH [CTX-1150], the “MC3R cAMP (EC50)” value is 2.9 nM and the “MC3R selectivity (relative to MC4R)” value worked out at 577.

Consider PKcap1-G[Nle][dA]HFR[dW]DRFG-OH [CTX-1147], for which the “MC3R cAMP (EC50)” value was 556 nM and the “MC3R selectivity (relative to MC4R)” value was 335.

Take B5: the “MC3R cAMP (EC50)” value was found to be 3 nM and the “MC3R selectivity (relative to MC4R)” value worked out at 5600.

A further assay concerns the target human MC4R (Homo sapiens, UniProt P32245). As to the kind of experiment: Intracellular cAMP levels in live cells, MC3R selectivity relative to MC4R. It counts as cell-based. Particulars: cAMP assays in human MC3R and human MC4R stable cell lines. The protocol:
The stable cell lines were grown and maintained in selection media consisting of Dulbecco's modified Eagle media (DMEM) with 4.5 g/l D-glucose, and 4 mM L-glutamine (Thermo Fisher Scientific, Waltham, MA), supplemented with 10% fetal bovine serum, 100 units/ml penicillin, 100 μg/ml streptomycin, 2.5 μg/ml amphotericin B, 200 μg/ml hygromycin B (for positive selection of the GScAMP22f luciferase reporter), and Geneticin™ (G418) 700 μg/ml (for MC3R or MC4R selection). Actual serum concentration during the assay is estimated to be about 1%. Cell line identity is routinely verified by qPCR and MC3R- and MC4R-specific oligonucleotides.
The assay for the determination of the CAMP response in live cells was described previously. […] Ccells were seeded at a density of 20,000 cells per well using 384-well poly-D lysine-coated, clear bottom, and black-wall assay plates (Corning Inc. Corning, NJ). Cells were allowed to attach to the plates for 18 to 24 h after which growth media was removed and 20 ul of 4% D-luciferin (Promega) in CO2 independent, serum-free medium (Thermo Fisher Scientific) was added to each well. […] Intracellular cAMP levels were measured using an FDSS 7000EX Functional Drug Screening System (Hamamatsu Photonics, Hamamatsu, Japan) in the Center for Chemical Genomics at the Life Sciences Institute. This instrument allowed the in-line addition of test-peptides and receptor agonists while simultaneously acquiring the luminescence signal from live cells. […] A submaximal forskolin (20 μM) concentration was also included to serve as a normalization reference to account for cell number variations and differences in assay transducer efficiency between cell lines.
With this set up it was possible to evaluate the direct agonist effect of the test-peptides on the MC3R and MC4R cell lines during measurement window 1, while the antagonist profile in the presence of EC90 α-MSH was determined on measurement window 2. […] EC50 or IC50 potency values were determined by non-linear regression by fitting the data to a sigmoid four-parameter variable slope model using the GraphPad Prism version 8.4 software package (San Diego CA).
On the technique in general: Cyclic AMP is a second messenger, typically raised through Gs and lowered through Gi signalling.
Take `CCCC[C@H](NC(=O)[C@@H](NC(=O)[C@@H](N)Cc1ccc(O)cc1)C(C)C)C(=O)N[C@H](C)C(=O)N[C@@H](Cc1c[nH]cn1)C(=O)N[C@H](Cc1ccccc1)C(=O)N[C@@H](CCCNC(=N)N)C(=O)N[C@H](Cc1c[nH]c2ccccc12)C(=O)N[C@@H](CC(=O)O)C(=O)N[C@@H](CCCNC(=N)N)C(=O)N[C@@H](Cc1ccccc1)C(=O)NCC(=O)O` [CTX-1104, Tyr-Val-Nle-D-Ala-His-D-Phe-Arg-D-Trp-Asp-Arg-Phe-Gly] (H-YV[Nle][dA]H[dF]R[dW]DRFG-OH): the “MC3R selectivity (relative to MC4R)” value is 27.

On to `CCCC[C@H](NC(=O)[C@@H](NC(=O)[C@@H](N)Cc1ccc(O)cc1)C(C)C)C(=O)NCC(=O)N[C@@H](Cc1c[nH]cn1)C(=O)N[C@H](Cc1ccccc1)C(=O)N[C@@H](CCCNC(=N)N)C(=O)N[C@H](Cc1c[nH]c2ccccc12)C(=O)N[C@@H](CC(=O)O)C(N)=O` [CTX-1107, Tyr-Val-Nle-Gly-His-D-Phe-Arg-D-Trp-Asp] (H-YV[Nle]GH[dF]R[dW]D-NH2), for which the “MC3R selectivity (relative to MC4R)” value amounted to 2.4.

Consider `CC(=O)N[C@@H](CO)C(=O)NCC(=O)N[C@@H](Cc1c[nH]cn1)C(=O)N[C@H](Cc1ccccc1)C(=O)N[C@@H](CCCNC(=N)N)C(=O)N[C@H](Cc1c[nH]c2ccccc12)C(=O)N[C@@H](CC(=O)O)C(N)=O` [CTX-1111, Ser-Gly-His-D-Phe-Arg-D-Trp-Asp] (Ac-SGH[dF]R[dW]D-NH2), for which the “MC3R selectivity (relative to MC4R)” value is on record as 0.1.

`CC(=O)N[C@H](C(=O)NCC(=O)N[C@@H](Cc1c[nH]cn1)C(=O)N[C@@H](Cc1ccccc1)C(=O)N[C@@H](CCCNC(=N)N)C(=O)N[C@H](Cc1c[nH]c2ccccc12)C(=O)N[C@@H](CC(=O)O)C(N)=O)[C@@H](C)O` [CTX-1112, Thr-Gly-His-Phe-Arg-D-Trp-Asp] (Ac-TGHFR[dW]D-NH2): the “MC3R selectivity (relative to MC4R)” value was 8.6.

On to `CC(=O)N[C@H](C(=O)NCC(=O)N[C@@H](Cc1c[nH]cn1)C(=O)N[C@H](Cc1ccccc1)C(=O)N[C@@H](CCCNC(=N)N)C(=O)N[C@H](Cc1c[nH]c2ccccc12)C(=O)N[C@@H](CC(=O)O)C(N)=O)[C@@H](C)O` [CTX-1113, Thr-Gly-His-D-Phe-Arg-D-Trp-Asp] (Ac-TGH[dF]R[dW]D-NH2), for which the “MC3R selectivity (relative to MC4R)” value stood at 0.4.
